Among the data in PMC9428257 (2022) are screen value values, retold here.

B1: yeast-displayed wild-type sBCMA (human BCMA extracellular domain, Met1-Ala54) [human] / human APRIL (a proliferation-inducing ligand) [human] (parent complex)
chain 1: MLQMAGQCSQNEYFDSLLHACIPCQLRCSSNTPPLTCQRYCNASVTNSVKGTNA
chain 2: AVLTQKQKKQHSVLHLVPINATSKDDSDVTEVMWQPALRRGRGLQAQGYGVRIQDAGVYLLYSQVLFQDVTFTMGQVVSREGQGRQETLFRCIRSMPSHPDRAYNSCYSAGVFHLHQGDILSVIIPRARAKLNLSPHGTFLGFVKL

The assay covers variants of B1. Kind of assay: flow cytometry binding curve of yeast-displayed sBCMA.
As to chain 1 MLQMAGQCSQNEYFDGLLYACIPCQLRCSSNTPPLACQRYCNASVTNSVKGTNA, the screen value is 325.
